Data taken from article PMC5458090, “Decoding NADPH oxidase 4 expression in human tumors” (Redox Biology, 2017).

How the values were obtained:
[1] = biological target: T1, MycDDK-HsNOX4 (human NADPH oxidase 4) (Homo sapiens, UniProt Q9NPH5); assay: Western blot; whole-cell extracts (RIPA buffer) loaded without boiling on a 4-20% Tris glycine gel, transferred to nitrocellulose, incubated with primary antibody overnight; fibroblasts treated with TGF-β1, COV362 cells with NOX4 siRNA; settings: one partner purified
T1 construct: NADPH oxidase 4 (NOX4), human, from plasmid pCMV-MycDDK-HsNOX4; also called MycDDK-NOX4; source: HEK293, stably (clones WT1, WT2) or transiently transfected; in whole-cell extract or on/in cells; not shown: Myc, N-terminal, kept; DDK, N-terminal, kept

endogenous human NOX4 = biological target: T2, endogenous human NOX4 (Homo sapiens (endogenous), UniProt Q9NPH5); assay: as above; settings: one partner purified
T2 construct: NADPH oxidase 4 (NOX4), endogenous in human cell lines and human tissues; also called endogenous NOX4; NOX4 protein; source: endogenous: CCL-210 lung fibroblast and COV362 whole-cell extracts; COV362 and OVCAR3 membrane fractions; COV362 cells; formalin-fixed human tissues (BioMax TMA MC6163)
T2 sequence (Q9NPH5 whole entry): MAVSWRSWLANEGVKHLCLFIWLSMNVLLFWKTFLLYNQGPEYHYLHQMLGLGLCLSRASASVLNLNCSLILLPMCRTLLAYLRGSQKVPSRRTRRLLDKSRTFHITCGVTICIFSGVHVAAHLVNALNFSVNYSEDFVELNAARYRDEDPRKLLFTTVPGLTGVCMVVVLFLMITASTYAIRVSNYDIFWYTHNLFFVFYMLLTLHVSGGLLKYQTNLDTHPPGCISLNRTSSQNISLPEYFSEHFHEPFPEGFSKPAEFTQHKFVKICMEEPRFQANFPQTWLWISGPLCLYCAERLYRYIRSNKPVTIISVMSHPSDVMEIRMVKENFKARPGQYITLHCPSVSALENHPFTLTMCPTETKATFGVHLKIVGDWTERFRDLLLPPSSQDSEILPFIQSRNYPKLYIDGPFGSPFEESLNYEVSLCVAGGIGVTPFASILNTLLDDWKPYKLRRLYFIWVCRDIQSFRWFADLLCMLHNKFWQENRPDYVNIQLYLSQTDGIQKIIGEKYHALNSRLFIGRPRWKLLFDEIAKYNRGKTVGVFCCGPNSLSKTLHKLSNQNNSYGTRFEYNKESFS

T1 sequence (Q9NPH5 whole entry): as above

binding result [1]: binds | binding result (endogenous human NOX4): binds
B1: NOX4 rabbit monoclonal antibody 47-6 (antibody, V domains shown)
VH: QSVEESGGRLVTPGGSLTLTCTVSGIDLSSNSVTWVRQAPGEGLKWIGIISDSHRAYYATWAKGRFTISKTSSTTVDLKMTSLTTGDTATYFCVVGNNIWGPGTLVTVSS
VL: AQVLTQTASPVSAAVGGTVTINCQASESVYSDNRLSWFQQKPGQPPKLLIYYASTLASGVPSRVKGSGSGTQFTLTISDLECDDAATYYCAGGFSNNIYEFGGGTEVVVK
notes: Rabbit monoclonal raised against fixed NOX4-overexpressing HEK293 cells and a peptide of human NOX4 amino acids 209-282 (E-loop); also called mAb 47-6; 47-6 mAb
